Here are results for three molecules from paper PMC9080080 (Cell Reports, 2022).

The experiment concerns the target SARS-CoV-2 RBD protein (Severe acute respiratory syndrome …, UniProt P0DTC2). Kind of experiment: ELISA.

B1: XMA04 (antibody, V domains shown)
VH: EVQLVESGGGVVQPGRSLRLSCAASGFTFRTYAMHWVRQAPGKGLEWVAVMWNDGSNKYYADSVKGRFTISRDNSKNTLYLEMNSLRAEDTAVYYCAREGVAAAGSSSDAFDIWGQGTMVTVSS
VL: DIQMTQSPSSLSASVGDRVTITCRASQSISNFLNWYQQKPGKAPKLLIYAASSLQSGVPSRFSGSGSGTDFTLTISSLQPEDFATYYCQQSYSTLYSFGQGTKLEIK
Turning to B1, the binding result is reported as “binds”.

B2: XMA01 (antibody, V domains shown)
VH: EVQLVESGGGLVQPGGSLRLSCSASGFTFSSYAMHWVRQAPGKGLEYVSSISSNGGSTYYADSVKGRFTISRDNSKNTLYLQMSSLRVEDAAVYYCVKHYQQQLLWGGPDVWGQGTTVTVSS
VL: DIQMTQSPVSLSASVGDRVTITCRASQSISTWLAWYQQKPGKAPKLLIYETSSLESGVPSRFSGSGSGTEFTLTISSLQPDDFATYYCQQFNSYPWTFGQGTKVEIK
Take B2: the binding result was “binds”.

B3: XMA09 (antibody, V domains shown)
VH: QVQLVQSGAEVKKPGSSVKVSCKASGGTFSSFAISWVRQAPGQGLEWMGGIIPIYGTANYAQKFQGRVTITADESTSTAYMDLSSLRSEDTAVYYCARDGSSTYYPHNWFDPWGQGTLVTVSS
VL: QSVLTQPPSVSGAPGQRVTISCTGSSSNIGSGYDVHWYQQLPGTAPKLLIYGNSNRPSGVPDRFSGSKSGTSASLAITGLQAEDEADYYCQSYDSSLSGVFGTGTKVTVL
Regarding B3, the binding result was “binds”.
